B1: human small vasohibin-binding protein (SVBP) (amino acids 2–66) (natural protein, UniProt Q8N300 2-66, looked up)
chain: DPPARKEKTKVKESVSRVEKAKQKSAQQELKQRQRAEIYALNRVMTELEQQQFDEFCKQMQPPGE
notes: the final model holds amino acids 26-53 (chain B); Expressed at the C-terminal end of the fusion MBP-His6-5xTEV-VASH1(56-310)-2xTEV-SVBP(2-66) and set free by TEV protease; Residues of the TEV site may be left at its N-terminus; source: E. coli One Shot BL21 Star (DE3) pLysS, purified (HisTrap FF, SP Sepharose, TEV cleavage, SP Sepharose, Superdex 200)
B2: human VASH1 core (VASH1c) region (amino acids 56–310) (domain or fragment)
chain: not shown
notes: vasohibin-1 (VASH1), human, core region, amino acids 56-310; the final model holds amino acids 56-304 (chain A); cut with TEV protease before crystallisation; Residues of the TEV sites may be left at the ends; also called vasohibin-1; source: E. coli One Shot BL21 Star (DE3) pLysS, purified (HisTrap FF, SP Sepharose, TEV cleavage, SP Sepharose, Superdex 200); not shown: MBP, N-terminal, cleaved; …

Experiments:
[1] = target: B2; experiment: crystal structure; purified VASH1c–SVBP complex (17.7 mg/ml), sitting-drop vapor diffusion at 20°C, 0.16 M ammonium sulfate, 0.08 M sodium acetate pH 4.6, 20% PEG 4000, 20% glycerol; space group P6(1)22, 2.3 Å; heterotetramer formed by a crystallographic twofold axis; details: both partners purified
[2] = target: the molecule itself; experiment: as above

binding result [1] | Binder | binding result [2]
binds | B1 | –
– | B2 | binds

Source: PMC7543661, “The crystal structure of the tetrameric human vasohibin-1–SVBP complex reveals a variable arm region within the structural core” (Acta Crystallographica. Section D, Structural Biology, 2020)
